The results in this text go back to US20220089752A1 (University of California, published 2022).

Assay [1] deals with activated leukocyte cell adhesion molecule (ALCAM) on human cell lines (human) (UniProt Q13740). Put plainly: cell-based or functional assay.
Assay [2] addresses ephrin type-A receptor 2 (EphA2) on cells (human) (UniProt P29317). Put plainly: cell-based or functional assay.
Assay [3] concerns the target T1, activated leukocyte cell adhesion molecule (ALCAM) on human cell lines (human, UniProt Q13740 28-583).
T1 construct: whole, on cells
T1 sequence (looked up): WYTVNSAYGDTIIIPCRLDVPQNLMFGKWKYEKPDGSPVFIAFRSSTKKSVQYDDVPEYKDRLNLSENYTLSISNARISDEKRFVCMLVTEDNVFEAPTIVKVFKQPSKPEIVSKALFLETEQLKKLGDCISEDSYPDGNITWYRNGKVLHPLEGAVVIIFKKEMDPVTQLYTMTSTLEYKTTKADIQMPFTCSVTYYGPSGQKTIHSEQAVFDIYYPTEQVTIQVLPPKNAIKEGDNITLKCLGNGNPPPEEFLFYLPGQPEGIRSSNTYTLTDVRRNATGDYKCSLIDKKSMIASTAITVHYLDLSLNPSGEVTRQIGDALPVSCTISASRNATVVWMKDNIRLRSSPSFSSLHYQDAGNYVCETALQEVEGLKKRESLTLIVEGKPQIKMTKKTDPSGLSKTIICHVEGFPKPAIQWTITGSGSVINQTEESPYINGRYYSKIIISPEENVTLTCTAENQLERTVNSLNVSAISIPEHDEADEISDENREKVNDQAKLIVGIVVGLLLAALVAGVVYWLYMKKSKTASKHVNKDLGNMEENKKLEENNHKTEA
Put plainly: FACS titration of the IgG1 on live DU145 cells, curve fit (apparent KD). Here is the method:
(§1) FIGS. 6A-6D graphically illustrate the selection and characterization of anti-ALCAM scFvs from phage display library. FIG. 6A: Enrichment of ALCAM-binding phage through three rounds of selection. Recombinant Fc-fusion of ALCAM-V domain was immobilized on magnetic beads and utilized for scFv phage display library selection. Enrichment was calculated by dividing phage output titer by input phage titer (y-axis on the left). Binding activity of polyclonal phages amplified from each round output was described as folds against the binding of the unselected phage library (y-axis on the right). FIG. 6B: After three rounds of selection, FACS was performed to screen out monoclonal phage binding to the ALCAM^high DU145 cell line. FIG. 6C: Apparent KD of 3F1 IgG on live ALCAM-expressing cells. DU145 cells were incubated with varying concentrations of 3F1 IgG at 4° C. overnight and analyzed by FACS using Alexa® 647-conjugated anti-human IgG. KD value was estimated by curve fitting using GraphPad Prism (GraphPad Software). FIG. 6D: Confocal microscopy study of cellular localization of anti-ALCAM 3F1 IgG. Tumor cell lines were seeded in chamber-well slide and incubated with 3F1 IgG at 37° C. for 2 hours. Antibodies were stained with Alexa® 647-conjugated anti-human antibody (red). […] ALCAM expression measured using 3F1 IgG was shown below microscopic images (lower panel). […]

In assay [4] the target is T1, activated leukocyte cell adhesion …. Put plainly: FACS on live DU145 cells, 3F1 IgG at 4 C overnight, Alexa 647 anti-human IgG. Here is the method: as §1
Assay [5] addresses T2, ephrin type-A receptor 2 (EphA2) on cells (human, UniProt P29317 24-976).
T2 construct: whole, on cells
Put plainly: flow cytometry on DU145 cells, 1 h at 25 C, 40 pM to 125 nM, MFI curve fit (apparent KD). Here is the method: In these experiments, apparent binding affinity of RYR IgG1 versus RYRgerm_102919_15 IgG1 on DU145 cells was evaluated. In these experiments, DU145 cells were incubated for 1 h at 25° C. with RYR or RYRgerm_102919_15 at a range of concentrations between 40 pM to 125 nM, washed, and binding detected with anti-human Alexa Fluor 647. MFI values were curve-fit to generate the apparent KD values.

Assay [6] deals with T3, recombinant human EphA2 (human, UniProt P29317 25-534).
T3 construct: also called human recombinant EphA2 protein
T3 sequence (P29317 25-534 limits assumed): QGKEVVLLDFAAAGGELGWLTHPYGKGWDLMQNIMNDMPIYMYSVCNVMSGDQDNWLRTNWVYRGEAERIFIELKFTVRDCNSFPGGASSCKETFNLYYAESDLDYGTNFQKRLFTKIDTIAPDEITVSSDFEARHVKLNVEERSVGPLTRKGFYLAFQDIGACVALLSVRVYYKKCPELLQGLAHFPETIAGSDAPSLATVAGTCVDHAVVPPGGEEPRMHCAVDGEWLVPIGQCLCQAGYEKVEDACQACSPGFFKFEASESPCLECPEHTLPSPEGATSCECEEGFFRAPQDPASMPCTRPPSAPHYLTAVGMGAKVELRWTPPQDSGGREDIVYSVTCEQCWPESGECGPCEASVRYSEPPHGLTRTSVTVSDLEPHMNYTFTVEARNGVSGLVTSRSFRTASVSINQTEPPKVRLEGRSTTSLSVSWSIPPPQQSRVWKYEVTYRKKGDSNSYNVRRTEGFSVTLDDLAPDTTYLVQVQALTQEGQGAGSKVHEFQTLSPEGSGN
Put plainly: BLI (Probe Life Gator), IgG1 on anti-human Fc probes, 100 nM recombinant human EphA2, 25 C.

Assay [7] deals with T4, mouse recombinant EphA2-Fc fusion protein (mouse, UniProt Q03145 26-535, limits assumed).
T4 construct: also called mouse EphA2; not shown: Fc part
T4 sequence (Q03145 26-535 limits assumed): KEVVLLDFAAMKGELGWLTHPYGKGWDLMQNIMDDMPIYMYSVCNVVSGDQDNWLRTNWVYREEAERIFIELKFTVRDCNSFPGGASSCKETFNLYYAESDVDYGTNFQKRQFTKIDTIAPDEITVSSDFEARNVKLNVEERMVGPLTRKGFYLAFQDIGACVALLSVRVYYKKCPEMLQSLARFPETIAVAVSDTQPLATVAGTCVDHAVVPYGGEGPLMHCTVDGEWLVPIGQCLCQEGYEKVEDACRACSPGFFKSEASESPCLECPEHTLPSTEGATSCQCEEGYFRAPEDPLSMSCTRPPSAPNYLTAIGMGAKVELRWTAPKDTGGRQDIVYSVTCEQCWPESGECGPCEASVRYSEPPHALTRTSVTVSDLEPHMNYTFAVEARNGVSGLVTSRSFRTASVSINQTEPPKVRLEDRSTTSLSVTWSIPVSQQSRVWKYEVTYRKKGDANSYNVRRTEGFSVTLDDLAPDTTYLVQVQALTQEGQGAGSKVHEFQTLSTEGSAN
Put plainly: flow cytometry of yeast-displayed scFv with mouse recombinant EphA2-Fc, curve fit of normalized MFI (apparent KD). The source says: (§2) In this experiment, RYRgerm is the germline version of RYR. The remaining samples were RYRgerm derivatives with high binding affinity. Apparent KD values were estimated by curve-fitting of normalized MFI values. FIG. 10B: Apparent KD measurement of four new EphA2 scFvs binding affinity to mouse recombinant EphA2-Fc fusion protein. Apparent KD values were estimated by curve-fitting of normalized MFI values.
(§3) This Example describes experiments performed to identify new versions of EphA2 binding scFv antibodies with improved binding affinity. The original EphA2 binding scFv RYR has been described previously in PCT/US2015/039741, in which EphA2 binding scFv RYR was named HCA-F1 and a germline version of RYR was named RYRgerm. To identify new versions of EphA2 binding scFv antibodies improved binding affinity for EphA2, yeast display mutagenesis libraries based on RYRgerm were generated and selected by FACS for higher affinity binders. Four new EphA2 scFvs with high binding affinity for EphA2 were identified and named […], RYRgerm_102919_15, RYRgerm_102919_22, and RYRgerm_102919_33, respectively. The amino acid sequences of VH and VL regions as well as the CDRs for these newly identified EphA2 scFvs are presented in Tables 4-5 and the Sequence Listing. In these eperiments, both human and mouse recombinant EphA2 proteins were used in selection to maintain cross-species binding. Apparent affinity was measured by flow cytometry for binding to both human and mouse EphA2.

Assay [8] addresses T3, recombinant human EphA2. Put plainly: flow cytometry of yeast-displayed scFv with human recombinant EphA2, curve fit of normalized MFI (apparent KD).
Text: as §2, with “FIGS. 10A-10B graphically illustrate the selection and characterization of anti-EphA2 scFvs from yeast display mutagenesis libraries. FIG. 10A: Apparent KD measurement of four new EphA2 scFvs binding affinity to human recombinant EphA2 protein. In” for “In”
as §3

The target in assay [9] is T3, recombinant human EphA2. Put plainly: flow cytometry of yeast-displayed scFv with recombinant human EphA2 at 0-100 nM.
Text: as §2
as §3, with “In these eperiments, both human and mouse recombinant EphA2 proteins were used in selection to maintain cross-species binding.” left out

Sequence of ephrin type-A receptor 2 (EphA2) on cells (human) (P29317 24-976): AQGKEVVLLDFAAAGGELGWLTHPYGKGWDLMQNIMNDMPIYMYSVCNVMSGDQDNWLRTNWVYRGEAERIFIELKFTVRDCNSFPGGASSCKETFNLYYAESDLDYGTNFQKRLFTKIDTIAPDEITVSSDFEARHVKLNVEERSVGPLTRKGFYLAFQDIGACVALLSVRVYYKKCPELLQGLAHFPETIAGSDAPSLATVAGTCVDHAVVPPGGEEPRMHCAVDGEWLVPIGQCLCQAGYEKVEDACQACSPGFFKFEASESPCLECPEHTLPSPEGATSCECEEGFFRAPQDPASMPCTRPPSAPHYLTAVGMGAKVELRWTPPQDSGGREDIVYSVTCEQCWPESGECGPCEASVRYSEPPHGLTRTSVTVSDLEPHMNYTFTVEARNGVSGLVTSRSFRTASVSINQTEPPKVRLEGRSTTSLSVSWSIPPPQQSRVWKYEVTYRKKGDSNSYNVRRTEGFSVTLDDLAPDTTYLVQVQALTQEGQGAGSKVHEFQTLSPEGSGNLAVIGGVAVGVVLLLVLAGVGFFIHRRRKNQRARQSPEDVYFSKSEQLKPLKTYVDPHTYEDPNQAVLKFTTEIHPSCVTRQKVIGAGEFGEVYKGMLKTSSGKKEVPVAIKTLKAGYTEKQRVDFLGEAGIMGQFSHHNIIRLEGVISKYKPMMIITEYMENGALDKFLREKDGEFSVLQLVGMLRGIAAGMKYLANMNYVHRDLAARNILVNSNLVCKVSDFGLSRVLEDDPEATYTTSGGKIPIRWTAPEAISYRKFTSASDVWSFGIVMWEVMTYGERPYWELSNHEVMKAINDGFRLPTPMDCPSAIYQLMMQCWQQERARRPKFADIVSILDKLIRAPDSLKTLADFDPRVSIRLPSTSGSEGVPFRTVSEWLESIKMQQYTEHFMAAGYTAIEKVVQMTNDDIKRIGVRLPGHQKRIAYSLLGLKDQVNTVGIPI
T2 sequence (P29317 24-976): as above

“control C10/RYR bsIgG (bispecific antibody)”: in [1], the ALCAM Internalization (% over ctrl, Mean, n = 2); HEK293-EphA2#2 cells turned out to be 14.6 % over ctrl; the ALCAM Internalization (% over ctrl, Mean, n = 2); HEK293-EphA2#8 cells stood at 0.5 % over ctrl; the ALCAM Internalization (% over ctrl, Mean, n = 2); HEK293-EphA2#31 cells is 9.2 % over ctrl; the ALCAM Internalization (% over ctrl, Mean, n = 2); HEK293-EphA2#42 cells was -16.5 % over ctrl. Also, in assay [1], the ALCAM Internalization (% over ctrl, Mean, n = 2); HEK293-EphA2#C9 cells is -9.6 % over ctrl; the ALCAM Internalization (% over ctrl, Mean, n = 2); HEK293-EphA2-0.02 cells was found to be 28.6 % over ctrl; the ALCAM Internalization (% over ctrl, Mean, n = 2); HEK293-EphA2-0.1 cells is -22.4 % over ctrl; the ALCAM Internalization (% over ctrl, Mean, n = 2); HEK293-EphA2-0.5 cells was -36.3 % over ctrl. For the same molecule, in assay [1], the ALCAM Internalization (% over ctrl, Mean, n = 2); HEK293-EphA2-2.5 cells was 7.1 % over ctrl; the ALCAM Internalization (% over ctrl, Mean, n = 2); HEK293-SiRNA2 cells was -6 % over ctrl; the ALCAM Internalization (% over ctrl, Mean, n = 2); HEK293-siRNA1 cells is -3.4 % over ctrl; the ALCAM Internalization (% over ctrl, Mean, n = 2); HEK293-siRNA3 cells is -4.4 % over ctrl. This molecule gave an ALCAM Internalization (% over ctrl, Mean, n = 2); HEK293 cells in assay [1] of 10.8 % over ctrl. For the same molecule, the surface EphA2 removed from pancreatic cancer cells (FACS) in [2] was determined as 85%.

B1: anti-ALCAM 3F1 IgG1 (antibody, V domains shown)
VH: EVQLVESGGGLVKPGGSLRLSCAASGFTLSDYSMNWVRQAPGKGLEWVASISSRSSYIYYADSVKGRFTISRDNAKNSLYLGMNSLRAEDTAVYYCTGGQGYSGYDGFQHWGQGTLVTVSS
VL: QSALTQPPSASGTPGQRVTISCSGSSSNIGSNSVSWYQQLPGTAPKLLIYSNTHRPSGVPDRFSGSKSGTSASLAISGLLSEDEADYYCASWDDSLNGGVFGGGTQLTVL
notes: also called anti-ALCAM mAb 3F1
In the case of B1, the Kd in assay [3] amounted to 0.0206 nM. Moreover, in [4], the “EC50 (read off the curve)” value is roughly 0.02 nM.

B2: RYR IgG1 (antibody, V domains shown)
VH: QVQLQESGGGLVQPGGSLRLSCAASGFTFSSYSMNWVRQAPGKGLEWVSYISSSSSTIYYADSVKGRFTISRDNAKNSLYLQMNSLRAEDTAVYYCARYRLPDFWSGYPNYGMDVWGQGTTVTVSS
VL: QSVLTQPPSVSGAPGQRVTISCTGSSSNIGAGYDVHWYQQLPGTAPKLLIYGNSNRPSGVPDRFSGSKSGTSASLAITGLQAEDEADYYCQSYDSSLSGHVVFGGGT
notes: Recombinant human IgG1 built from the original EphA2 scFv RYR; also called original RYR; HCA-F1
Regarding B2, the Kd in [5] stood at 23.7 nM. For the same molecule, in assay [6], the Kd was roughly 28 nM, the koff amounted to 0.0145 s⁻¹ and the kon amounted to 518000 M⁻¹ s⁻¹.

B3: RYRgerm_102919_22 scFv (scFv)
scFv: EVQLVESGGGLVQPGGSLRLSCAASGFTFSSYSMNWVRQAPGKGLEWVSYISSSSSTIYYADSVKGRFTISRDNAKNSLYLQMNSLRAEDTAVYYCARYRLPNFWSGYPNYGMDVWGQGTTVTVSSGGGGSGGGGSGGGGSQSVLTQPPSVSGAPGQRVTISCTGSSSNIGAGYDVHWYQQLPGTAPKLLIYGNSNRPSGVPDRFSGSKSGTSASLAITGLQAEDEADYYCQSYDSSLSGHVVFGGGTKLTVL
With B3, the values for the Kd in [7] and in [8] were 1.34 nM and 28.1 nM, respectively.

B4: RYRgerm scFv (scFv)
chain: EVQLVESGGGLVQPGGSLRLSCAASGFTFSSYSMNWVRQAPGKGLEWVSYISSSSSTIYYADSVKGRFTISRDNAKNSLYLQMNSLRAEDTAVYYCARYRLPDFWSGYPNYGMDVWGQGTTVTVSSGGGGSGGGGSGGGGSQSVLTQPPSVSGAPGQRVTISCTGSSSNIGAGYDVHWYQQLPGTAPKLLIYGNSNRPSGVPDRFSGSKSGTSASLAITGLQAEDEADYYCQSYDSSLSGHVVFGGGTKLTVL
In the case of B4, the Kd in assay [7] came to 115 nM; in assay [8], 355 nM.

B5: RYRgerm_102919_15 scFv (scFv)
scFv: EVQLVESGGGLVQPGGSLRLSCAASGFTFSSYSMNWVRQAPGKGLEWVSYISSSSSTIYYADSVKGRFTISRDNAKNSLYLQMNSLRAEDTAVYYCARYRLPNFWSGYPNYGTDVWGQGTTVTVSSGGGGSGGGGSGGGGSQSVLTQPPSVSGAPGQRVTISCTGSSSNIGAGYDVHWYQQLPGTAPKLLIYGNSNRPSGVPDRFSGSKSGTSASLAITGLQAEDEADYYCQSYDSSLSGHVVFGGGTKLTVL
With B5, the Kd in [7] was determined as 2.01 nM; in assay [8], 5.58 nM. Also, the “EC50 (read off the curve)” value in assay [9] is roughly 5 nM.

B6: RYRgerm_102919_14 scFv (scFv)
scFv: EVQLVESGGGLVQPGGSLRLSCAASGFTSSSYSMNWVRQAPGKGLEWVSYISSSSSTIYYADSVKGRFTISRDNAKNSLYLQMNSLRAEDTAVYYCARYRLPNFWSGYPNYGMDVWGQGTTVTVSSGGGGSGGGGSGGGGSQSVLTQPPSVSGAPGQRVTISCTGSSSNIGAGYDVHWYQQLPGTAPKLLIYGNSNRPSGVPDRFSGSKSGTSASLAITGLQAEDEADYYCQSYDSSLSGHVVFGGGTKLTVL
notes: also called RYRgerm_102019_14
In the case of B6, the Kd was found to be 2.12 nM in [7] and 21.3 nM in [8].

B7: RYRgerm_102919_33 scFv (scFv)
scFv: EVQLVESGGGLVQPGGSLRLSCAASGFTFSSYSMNWVRQAPGKGLEWVSYISSSSSTIYYADSVKGRFTISRDNAKNSLYLQMNSLRAEDTAVYYCARYRFPDFWSGYPNYGMDVWGQGTTVTVSSGGGGSGGGGSGGGGSQSVLTQPPSVSGAPGQRVTISCTGSSSNIGAGYDVHWYQQLPGTAPKLLIYGNSNRPSGVPDRFSGSKSGTSASLAITGLQAEDEADYYCQSYDSSLSGHVVFGGGTKLTVL
In the case of B7, the figures for the Kd in assay [7] and in assay [8] were 2.87 nM and 42.5 nM, respectively.
